Two substances from patent publication US20020127721A1 can be followed below.

Assay [1] deals with human coxsackievirus and adenovirus receptor (CAR) (human) (UniProt P78310). Kind of assay: cell-based or functional assay.
For assay [2] the target is unchanged. Kind of assay: flow cytometry, RmcB staining of CHO cells after Ad5CMVhCAR:CaPi gene transfer.
The target is the same in assay [3]. Kind of assay: flow cytometry, RmcB staining of 3T3 cells after Ad5CMVhCAR:CaPi gene transfer. In general terms: Flow cytometry measures light scatter and fluorescence of single cells or particles in a stream.

Chain of UniProt P78310 (P78310 20-365): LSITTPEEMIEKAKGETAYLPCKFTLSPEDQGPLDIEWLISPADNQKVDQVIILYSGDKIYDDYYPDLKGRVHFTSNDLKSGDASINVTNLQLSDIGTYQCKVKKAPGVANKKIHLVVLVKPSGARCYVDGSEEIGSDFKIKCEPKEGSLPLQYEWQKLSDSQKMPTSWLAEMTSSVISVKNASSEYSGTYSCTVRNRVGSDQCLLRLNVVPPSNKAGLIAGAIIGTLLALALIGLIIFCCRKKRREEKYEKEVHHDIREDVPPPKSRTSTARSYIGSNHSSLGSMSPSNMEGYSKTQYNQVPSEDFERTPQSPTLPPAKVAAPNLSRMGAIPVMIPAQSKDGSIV

Consider “Ad5 fiber (endogenous, non-recombinant fiber of the control virus Ad5RSVeGFP) (from UniProt P11818 1-581)”, for which, in assay [1], the infection of 3T3 cells after CAR gene transfer (% eGFP-positive by FACS; 3% without CAR) turned out to be 21% and the infection of CHO cells after CAR gene transfer (% eGFP-positive by FACS; 0% without CAR) worked out at 57%.

For the substance “monoclonal antibodies (mAbs) against CAR (RmcB) (antibody)”, the percent of cells positive for CAR in assay [2] came out at 96%; in assay [3] it was 92%.
